Assay results: paper PMC5748159
Like-named read-outs stand apart in the source and are kept apart here.

Experiments:
Experiment in all cases: SEC
[1] = molecular target: Human S100A7 (psoriasin), reduced, with Cys47 and Cys96 as free thiols (human) (UniProt P31151)
[2] = molecular target: S100A7(C47A)(C96A) homodimer (human) (UniProt P31151)
[3] = molecular target: S100A7(C47A)(C96A) homodimer (human) (UniProt P31151); remark: listed apart in the source
[4] = molecular target: Human S100A7 (psoriasin), oxidized, with Cys47–Cys96 disulfide bond (human) (UniProt P31151)
[5] = molecular target: S100A7(C47S)(C96S) homodimer (human) (UniProt P31151)
[6] = molecular target: S100A7(C47S)(C96S) homodimer (human) (UniProt P31151); remark: listed apart in the source

Human S100A7 (psoriasin), reduced, with Cys47 and Cys96 as free thiols (from UniProt P31151 1-101) (natural protein)
stoichiometry N [1]: 2

S100A7(C47A)(C96A) homodimer (from UniProt P31151 1-101) (natural protein)
stoichiometry N [2]: 2
stoichiometry N [3]: 2

Human S100A7 (psoriasin), oxidized, with Cys47–Cys96 disulfide bond (from UniProt P31151 1-101) (natural protein)
stoichiometry N [4]: 2

S100A7(C47S)(C96S) homodimer (from UniProt P31151 1-101) (natural protein)
stoichiometry N [5]: 2
stoichiometry N [6]: 2
